From the supplement of paper PMC10065799, “High-throughput profiling of sequence recognition by tyrosine kinases and SH2 domains using bacterial peptide display” (eLife, 2023)

Each sequence was assayed against EPHB1 (UniProt P54762) (assay: phosphorylation enrichment, bacterial display (enrichment ratio); higher = better substrate or ligand; peptides without Tyr show the background).
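Further: 11-residue human phosphosite peptides and single-mutation variants displayed on the E. coli surface, counted by deep sequencing, each peptide's frequency after selection divided by its frequency in the unselected input library; frequency after pTyr selection over input frequency; kinase dosed for 20-30% of maximal phosphorylation in three min.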

Chain of EPHB1 (P54762 whole entry, looked up): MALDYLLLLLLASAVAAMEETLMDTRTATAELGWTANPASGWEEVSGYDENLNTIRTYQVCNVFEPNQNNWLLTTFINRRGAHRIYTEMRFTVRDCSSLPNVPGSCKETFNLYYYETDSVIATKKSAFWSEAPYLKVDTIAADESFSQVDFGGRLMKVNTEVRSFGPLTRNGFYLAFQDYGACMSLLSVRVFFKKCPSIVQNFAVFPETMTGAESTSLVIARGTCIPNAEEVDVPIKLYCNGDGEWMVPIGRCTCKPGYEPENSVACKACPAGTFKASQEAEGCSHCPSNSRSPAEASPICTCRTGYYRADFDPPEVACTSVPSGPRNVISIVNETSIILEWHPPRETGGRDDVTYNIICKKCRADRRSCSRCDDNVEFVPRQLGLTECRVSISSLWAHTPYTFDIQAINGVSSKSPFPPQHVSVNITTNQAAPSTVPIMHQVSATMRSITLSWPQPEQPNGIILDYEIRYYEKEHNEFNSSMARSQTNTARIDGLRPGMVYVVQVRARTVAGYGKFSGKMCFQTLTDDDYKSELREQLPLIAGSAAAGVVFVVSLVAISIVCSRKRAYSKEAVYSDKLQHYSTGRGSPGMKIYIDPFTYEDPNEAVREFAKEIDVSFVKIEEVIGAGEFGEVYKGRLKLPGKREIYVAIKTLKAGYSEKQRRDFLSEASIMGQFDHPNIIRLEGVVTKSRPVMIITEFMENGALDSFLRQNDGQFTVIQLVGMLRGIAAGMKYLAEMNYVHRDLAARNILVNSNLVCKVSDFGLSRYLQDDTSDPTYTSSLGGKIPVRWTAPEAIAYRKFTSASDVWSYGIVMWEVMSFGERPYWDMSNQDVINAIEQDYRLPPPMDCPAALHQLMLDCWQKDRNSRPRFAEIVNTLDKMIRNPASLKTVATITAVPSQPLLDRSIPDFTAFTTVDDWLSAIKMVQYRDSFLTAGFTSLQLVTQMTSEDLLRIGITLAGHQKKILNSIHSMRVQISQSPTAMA

| Sequence | phosphorylation enrichment |
| --- | --- |
| VVAHHYSFAPD [TNS3_Y601_Q600H] | 0.426 |
| VSNFNYFYHRE [KCNA1_Y413] | 0.614 |
| GESKDYALHAG [SVIL_Y185_V189A] | 0.479 |
| EALDFYGEVRI [PTEN_Y155_T160I] | 0.871 |
| ILCTVYAFKMR [GRM3_Y754_T758M] | 0.97 |
| MKGDFYRFLAE [YWHAG_Y131_YF] | 0.497 |
| LITTLYSGFLG [KCNQ1_Y267_I268S] | 0.965 |
| TAALWYIYLHT [ENG_Y612_S615L] | 0.796 |
| ADARMYGVLLW [PLP1_Y207_P211L] | 0.559 |
| KHCEDYVFSFN [DSC1_Y846_C848F_YF] | 0.776 |
| FGLTLYPNSRE [MEP1A_Y472_V469L] | 0.55 |
| VGQRPYQPLPE [REEP3_Y170] | 0.38 |
| DEEPPHRGPFC [SASH1_Y551_Y551H] | 0.619 |
| VNYGAYINDFK [GLB1_Y488] | 0.709 |
| VMLENYSNLVS [ZFP69_Y109] | 1.49 |
| IGLHAYGDQYR [IDH1_Y135_R132L] | 0.469 |
| PARLEYYENEK [IRS1_Y46] | 0.613 |

| Sequence | phosphorylation enrichment |
| --- | --- |
| RASSVFTRSTG [CCR5_Y339_Y339F] | 0.619 |
| YGLPRYRWLTH [TSPAN12_Y143] | 0.5 |
| TVLGEYASPKG [CYP24A1_Y407_L409S] | 0.508 |
| KSIEEYLKLVG [RASAL2_Y381] | 0.468 |
| ASMAKYYASEI [ACADSB_Y372] | 0.404 |
| PELINYHQHNF [BTK_Y361_S366F] | 0.631 |
| FTRNYYVWAVL [CYBA_Y88_R90W] | 3.79 |
| NHYKIHNLCAE [PTEN_Y68_Y68H] | 0.56 |
| ELQGTYTSLQQ [KIF3C_Y574_R571Q] | 0.638 |
| YISLIYTNYEV [GSTP1_Y109_A114V] | 2 |
| WQQQSYLDLGI [CTNNB1_Y30_S33L] | 0.719 |
| WASQRYGRELR [BAD_Y110_A107S] | 0.484 |
| SVTCTYSPAHN [TP53_Y126_L130H] | 0.773 |
| LGGSPYPSVPV [FGFR1_Y701_G703S] | 0.85 |
| ALAHKCHGGGG [HBB_Y146_Y146C] | 0.473 |
| VLNDAYENLTR [SYNE2_Y3255] | 0.531 |

What follows are sequences tested on c-Src in the same assay as above.

| Sequence | phosphorylation enrichment |
| --- | --- |
| VVAHHYSFAPD [TNS3_Y601_Q600H] | 0.643 |
| VSNFNYFYHRE [KCNA1_Y413] | 0.512 |
| GESKDYALHAG [SVIL_Y185_V189A] | 0.413 |
| EALDFYGEVRI [PTEN_Y155_T160I] | 1.44 |
| ILCTVYAFKMR [GRM3_Y754_T758M] | 0.65 |
| MKGDFYRFLAE [YWHAG_Y131_YF] | 0.448 |
| LITTLYSGFLG [KCNQ1_Y267_I268S] | 6.52 |
| TAALWYIYLHT [ENG_Y612_S615L] | 0.566 |
| ADARMYGVLLW [PLP1_Y207_P211L] | 4.01 |
| KHCEDYVFSFN [DSC1_Y846_C848F_YF] | 1.75 |
| FGLTLYPNSRE [MEP1A_Y472_V469L] | 0.394 |
| VGQRPYQPLPE [REEP3_Y170] | 0.393 |
| DEEPPHRGPFC [SASH1_Y551_Y551H] | 0.475 |
| VNYGAYINDFK [GLB1_Y488] | 0.761 |
| VMLENYSNLVS [ZFP69_Y109] | 0.363 |
| IGLHAYGDQYR [IDH1_Y135_R132L] | 0.473 |
| PARLEYYENEK [IRS1_Y46] | 0.711 |

| Sequence | phosphorylation enrichment |
| --- | --- |
| RASSVFTRSTG [CCR5_Y339_Y339F] | 0.821 |
| YGLPRYRWLTH [TSPAN12_Y143] | 0.387 |
| TVLGEYASPKG [CYP24A1_Y407_L409S] | 0.468 |
| KSIEEYLKLVG [RASAL2_Y381] | 0.438 |
| ASMAKYYASEI [ACADSB_Y372] | 0.595 |
| PELINYHQHNF [BTK_Y361_S366F] | 0.942 |
| FTRNYYVWAVL [CYBA_Y88_R90W] | 0.506 |
| NHYKIHNLCAE [PTEN_Y68_Y68H] | 0.492 |
| ELQGTYTSLQQ [KIF3C_Y574_R571Q] | 3.34 |
| YISLIYTNYEV [GSTP1_Y109_A114V] | 4.53 |
| WQQQSYLDLGI [CTNNB1_Y30_S33L] | 0.517 |
| WASQRYGRELR [BAD_Y110_A107S] | 0.501 |
| SVTCTYSPAHN [TP53_Y126_L130H] | 0.802 |
| LGGSPYPSVPV [FGFR1_Y701_G703S] | 0.453 |
| ALAHKCHGGGG [HBB_Y146_Y146C] | 0.563 |
| VLNDAYENLTR [SYNE2_Y3255] | 0.391 |

Each sequence was assayed against FGFR3 (UniProt P22607) in the same assay as above.
Chain of FGFR3 (P22607 whole entry, looked up): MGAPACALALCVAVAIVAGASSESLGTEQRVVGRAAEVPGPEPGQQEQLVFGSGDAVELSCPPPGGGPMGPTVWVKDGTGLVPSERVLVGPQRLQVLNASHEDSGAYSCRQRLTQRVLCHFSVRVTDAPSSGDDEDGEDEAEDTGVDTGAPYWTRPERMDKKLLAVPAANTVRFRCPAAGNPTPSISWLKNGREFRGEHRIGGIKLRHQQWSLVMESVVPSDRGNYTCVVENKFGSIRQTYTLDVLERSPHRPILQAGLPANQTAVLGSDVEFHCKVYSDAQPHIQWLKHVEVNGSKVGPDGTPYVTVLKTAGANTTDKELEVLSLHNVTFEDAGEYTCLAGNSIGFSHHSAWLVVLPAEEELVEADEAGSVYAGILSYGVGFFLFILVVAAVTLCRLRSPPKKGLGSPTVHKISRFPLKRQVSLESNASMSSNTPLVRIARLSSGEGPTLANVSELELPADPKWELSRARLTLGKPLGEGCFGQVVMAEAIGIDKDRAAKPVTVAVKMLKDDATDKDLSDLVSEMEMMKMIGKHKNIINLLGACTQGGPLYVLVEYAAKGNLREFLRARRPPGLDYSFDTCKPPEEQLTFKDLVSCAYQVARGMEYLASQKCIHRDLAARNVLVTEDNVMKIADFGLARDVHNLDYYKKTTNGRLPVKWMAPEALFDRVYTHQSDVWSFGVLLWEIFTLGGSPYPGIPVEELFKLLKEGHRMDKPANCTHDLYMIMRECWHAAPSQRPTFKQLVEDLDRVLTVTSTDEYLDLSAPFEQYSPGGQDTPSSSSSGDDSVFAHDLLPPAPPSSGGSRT

| Sequence | phosphorylation enrichment |
| --- | --- |
| VVAHHYSFAPD [TNS3_Y601_Q600H] | 0.674 |
| VSNFNYFYHRE [KCNA1_Y413] | 1.86 |
| GESKDYALHAG [SVIL_Y185_V189A] | 0.455 |
| EALDFYGEVRI [PTEN_Y155_T160I] | 1.1 |
| ILCTVYAFKMR [GRM3_Y754_T758M] | 0.89 |
| MKGDFYRFLAE [YWHAG_Y131_YF] | 0.49 |
| LITTLYSGFLG [KCNQ1_Y267_I268S] | 0.755 |
| TAALWYIYLHT [ENG_Y612_S615L] | 1.1 |
| ADARMYGVLLW [PLP1_Y207_P211L] | 0.751 |
| KHCEDYVFSFN [DSC1_Y846_C848F_YF] | 1.84 |
| FGLTLYPNSRE [MEP1A_Y472_V469L] | 0.698 |
| VGQRPYQPLPE [REEP3_Y170] | 0.525 |
| DEEPPHRGPFC [SASH1_Y551_Y551H] | 0.651 |
| VNYGAYINDFK [GLB1_Y488] | 0.593 |
| VMLENYSNLVS [ZFP69_Y109] | 0.608 |
| IGLHAYGDQYR [IDH1_Y135_R132L] | 0.598 |
| PARLEYYENEK [IRS1_Y46] | 0.882 |

| Sequence | phosphorylation enrichment |
| --- | --- |
| RASSVFTRSTG [CCR5_Y339_Y339F] | 0.797 |
| YGLPRYRWLTH [TSPAN12_Y143] | 0.475 |
| TVLGEYASPKG [CYP24A1_Y407_L409S] | 0.482 |
| KSIEEYLKLVG [RASAL2_Y381] | 0.48 |
| ASMAKYYASEI [ACADSB_Y372] | 0.576 |
| PELINYHQHNF [BTK_Y361_S366F] | 0.598 |
| FTRNYYVWAVL [CYBA_Y88_R90W] | 5.58 |
| NHYKIHNLCAE [PTEN_Y68_Y68H] | 0.58 |
| ELQGTYTSLQQ [KIF3C_Y574_R571Q] | 0.595 |
| YISLIYTNYEV [GSTP1_Y109_A114V] | 4.26 |
| WQQQSYLDLGI [CTNNB1_Y30_S33L] | 1.36 |
| WASQRYGRELR [BAD_Y110_A107S] | 0.414 |
| SVTCTYSPAHN [TP53_Y126_L130H] | 0.865 |
| LGGSPYPSVPV [FGFR1_Y701_G703S] | 0.646 |
| ALAHKCHGGGG [HBB_Y146_Y146C] | 0.546 |
| VLNDAYENLTR [SYNE2_Y3255] | 0.761 |

The sequences below were run against Jak2 (UniProt O60674) in the same assay as above.
Chain of Jak2 (O60674 whole entry, looked up): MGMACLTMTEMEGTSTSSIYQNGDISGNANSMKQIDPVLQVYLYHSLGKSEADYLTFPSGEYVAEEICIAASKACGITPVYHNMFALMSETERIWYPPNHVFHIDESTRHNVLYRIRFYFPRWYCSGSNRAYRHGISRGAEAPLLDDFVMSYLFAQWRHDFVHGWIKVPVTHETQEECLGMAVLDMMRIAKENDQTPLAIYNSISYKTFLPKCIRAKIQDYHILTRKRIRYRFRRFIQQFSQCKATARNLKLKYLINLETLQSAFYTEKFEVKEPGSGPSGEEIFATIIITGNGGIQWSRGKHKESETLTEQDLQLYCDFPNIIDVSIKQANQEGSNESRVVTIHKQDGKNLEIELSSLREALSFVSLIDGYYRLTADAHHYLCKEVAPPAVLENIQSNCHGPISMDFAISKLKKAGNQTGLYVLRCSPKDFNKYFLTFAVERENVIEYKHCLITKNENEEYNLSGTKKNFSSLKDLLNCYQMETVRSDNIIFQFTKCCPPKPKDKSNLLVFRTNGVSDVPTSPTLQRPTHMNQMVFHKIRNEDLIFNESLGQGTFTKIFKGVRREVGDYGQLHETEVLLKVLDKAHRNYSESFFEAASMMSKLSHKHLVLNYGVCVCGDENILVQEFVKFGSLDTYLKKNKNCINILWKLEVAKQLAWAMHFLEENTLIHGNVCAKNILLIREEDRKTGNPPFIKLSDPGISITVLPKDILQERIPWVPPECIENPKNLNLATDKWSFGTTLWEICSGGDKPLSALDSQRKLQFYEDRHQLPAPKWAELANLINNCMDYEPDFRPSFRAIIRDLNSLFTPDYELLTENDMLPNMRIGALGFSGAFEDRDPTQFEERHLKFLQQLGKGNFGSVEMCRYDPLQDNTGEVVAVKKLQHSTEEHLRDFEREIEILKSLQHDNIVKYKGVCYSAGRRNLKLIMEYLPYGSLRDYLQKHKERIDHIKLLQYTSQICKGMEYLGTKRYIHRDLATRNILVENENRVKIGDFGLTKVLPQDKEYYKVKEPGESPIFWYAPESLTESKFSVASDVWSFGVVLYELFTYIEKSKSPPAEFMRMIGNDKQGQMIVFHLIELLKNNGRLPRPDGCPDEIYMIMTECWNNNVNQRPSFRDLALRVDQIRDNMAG

| Sequence | phosphorylation enrichment |
| --- | --- |
| VVAHHYSFAPD [TNS3_Y601_Q600H] | 0.707 |
| VSNFNYFYHRE [KCNA1_Y413] | 0.943 |
| GESKDYALHAG [SVIL_Y185_V189A] | 0.493 |
| EALDFYGEVRI [PTEN_Y155_T160I] | 2.03 |
| ILCTVYAFKMR [GRM3_Y754_T758M] | 1.09 |
| MKGDFYRFLAE [YWHAG_Y131_YF] | 0.845 |
| LITTLYSGFLG [KCNQ1_Y267_I268S] | 0.992 |
| TAALWYIYLHT [ENG_Y612_S615L] | 1.55 |
| ADARMYGVLLW [PLP1_Y207_P211L] | 1.03 |
| KHCEDYVFSFN [DSC1_Y846_C848F_YF] | 1.04 |
| FGLTLYPNSRE [MEP1A_Y472_V469L] | 0.68 |
| VGQRPYQPLPE [REEP3_Y170] | 0.505 |
| DEEPPHRGPFC [SASH1_Y551_Y551H] | 0.795 |
| VNYGAYINDFK [GLB1_Y488] | 0.665 |
| VMLENYSNLVS [ZFP69_Y109] | 0.49 |
| IGLHAYGDQYR [IDH1_Y135_R132L] | 0.563 |
| PARLEYYENEK [IRS1_Y46] | 1.17 |

| Sequence | phosphorylation enrichment |
| --- | --- |
| RASSVFTRSTG [CCR5_Y339_Y339F] | 0.766 |
| YGLPRYRWLTH [TSPAN12_Y143] | 0.659 |
| TVLGEYASPKG [CYP24A1_Y407_L409S] | 0.561 |
| KSIEEYLKLVG [RASAL2_Y381] | 0.775 |
| ASMAKYYASEI [ACADSB_Y372] | 0.92 |
| PELINYHQHNF [BTK_Y361_S366F] | 1.02 |
| FTRNYYVWAVL [CYBA_Y88_R90W] | 1.84 |
| NHYKIHNLCAE [PTEN_Y68_Y68H] | 0.706 |
| ELQGTYTSLQQ [KIF3C_Y574_R571Q] | 0.867 |
| YISLIYTNYEV [GSTP1_Y109_A114V] | 1.54 |
| WQQQSYLDLGI [CTNNB1_Y30_S33L] | 1.35 |
| WASQRYGRELR [BAD_Y110_A107S] | 0.644 |
| SVTCTYSPAHN [TP53_Y126_L130H] | 2.08 |
| LGGSPYPSVPV [FGFR1_Y701_G703S] | 0.645 |
| ALAHKCHGGGG [HBB_Y146_Y146C] | 0.862 |
| VLNDAYENLTR [SYNE2_Y3255] | 0.665 |
